Substrate: Nc1ncnc2c1ncn2[C@@H]1O[C@H](COP(=O)(O)OP(=O)(O)OP(=O)(O)O)[C@@H](O)[C@H]1O
Assay: malachite green ATP hydrolysis assay, Michaelis-Menten Km
Assay type: biochemical, Homo sapiens
Conditions: Mg2+ N-terminal ATPase site

B1: Type IIα DNA topoisomerase (TopoIIα) (Homo sapiens) (protein)
chain: MEVSPLQPVNENMQVNKIKKNEDAKKRLSVERIYQKKTQLEHILLRPDTYIGSVELVTQQMWVYDEDVGINYREVTFVPGLYKIFDEILVNAADNKQRDPKMSCIRVTIDPENNLISIWNNGKGIPVVEHKVEKMYVPALIFGQLLTSSNYDDDEKKVTGGRNGYGAKLCNIFSTKFTVETASREYKKMFKQTWMDNMGRAGEMELKPFNGEDYTCITFQPDLSKFKMQSLDKDIVALMVRRAYDIAGSTKDVKVFLNGNKLPVKGFRSYVDMYLKDKLDETGNSLKVIHEQVNHRWEVCLTMSEKGFQQISFVNSIATSKGGRHVDYVADQIVTKLVDVVKKKNKGGVAVKAHQVKNHMWIFVNALIENPTFDSQTKENMTLQPKSFGSTCQLSEKFIKAAIGCGIVESILNWVKFKAQVQLNKKCSAVKHNRIKGIPKLDDANDAGGRNSTECTLILTEGDSAKTLAVSGLGVVGRDKYGVFPLRGKILNVREASHKQIMENAEINNIIKIVGLQYKKNYEDEDSLKTLRYGKIMIMTDQDQDGSHIKGLLINFIHHNWPSLLRHRFLEEFITPIVKVSKNKQEMAFYSLPEFEEWKSSTPNHKKWKVKYYKGLGTSTSKEAKEYFADMKRHRIQFKYSGPEDDAAISLAFSKKQIDDRKEWLTNFMEDRRQRKLLGLPEDYLYGQTTTYLTYNDFINKELILFSNSDNERSIPSMVDGLKPGQRKVLFTCFKRNDKREVKVAQLAGSVAEMSSYHHGEMSLMMTIINLAQNFVGSNNLNLLQPIGQFGTRLHGGKDSASPRYIFTMLSSLARLLFPPKDDHTLKFLYDDNQRVEPEWYIPIIPMVLINGAEGIGTGWSCKIPNFDVREIVNNIRRLMDGEEPLPMLPSYKNFKGTIEELAPNQYVISGEVAILNSTTIEISELPVRTWTQTYKEQVLEPMLNGTEKTPPLITDYREYHTDTTVKFVVKMTEEKLAEAERVGLHKVFKLQTSLTCNSMVLFDHVGCLKKYDTVLDILRDFFELRLKYYGLRKEWLLGMLGAESAKLNNQARFILEKIDGKIIIENKPKKELIKVLIQRGYDSDPVKAWKEAQQKVPDEEENEESDNEKETEKSDSVTDSGPTFNYLLDMPLWYLTKEKKDELCRLRNEKEQELDTLKRKSPSDLWKEDLATFIEELEAVEAKEKQDEQVGLPGKGGKAKGKKTQMAEVLPSPRGQRVIPRITIEMKAEAEKKNKKKIKNENTEGSPQEDGVELEGLKQRLEKKQKREPGTKTKKQTTLAFKPIKKGKKRNPWSDSESDRSSDESNFDVPPRETEPRRAATKTKFTMDLDSDEDFSDFDEKTDDEDFVPSDASPPKTKTSPKLSNKELKPQKSVVSDLEADDVKGSVPLSSSPPATHFPDETEITNPVPKKNVTVKKTAAKSQSSTSTTGAKKRAAPKGTKRDPALNSGVSQKPDPAKTKNRRKRKPSTSDDSDSNFEKIVSKAVTSKKSKGESDDFHMDFDSAVAPRAKSVRAKKPIKYLEESDEDDLF
notes: recombinant human TopoIIα
For B1, which Km is on record?
The Km was 390 ± 50 µM.

Source: article PMC3229241, “Neoamphimedine Circumvents Metnase-Enhanced DNA Topoisomerase IIα Activity Through ATP-Competitive Inhibition” (2011)
